From patent publication US20220162261A1 (published 2022)
Read-outs that look alike come from different tables or passages of the source. Numbered stars: 1 amine (or outer) side, 2 acyl side, 3 side chain; on linkers, the order of the positions; unused ones are H or OH. Bridge positions count the residues as written; N and C are the ends. Square brackets hold non-standard residues; d marks the D form. Asp(OMe) = L-aspartic acid beta-methyl ester, COC(=O)C[C@H](N[*:1])C(=O)[*:2]; Phe(3,4-Cl2) = N[C@@H](Cc1ccc(Cl)c(Cl)c1)C(=O)O; Phe(4-tBu) = CC(C)(C)c1ccc(C[C@H](N)C(=O)O)cc1; Phe(2,4-Cl2) = N[C@@H](Cc1ccc(Cl)cc1Cl)C(=O)O; NMeR = CN[C@@H](CCCNC(=N)N)C(=O)O; hPhe = N[C@@H](CCc1ccccc1)C(=O)O; Tic = O=C(O)[C@@H]1Cc2ccccc2CN1; β3hE = N[C@@H](CCC(=O)O)CC(=O)O; Pen = CC(C)(S)[C@H](N)C(=O)O; βAla = NCCC(=O)O

What was measured:
[1] = target: T1, rh integrin α4β7 (R&D Systems #5397-A30) (human, UniProt P13612 34-970; P26010 20-723); assay: competition ELISA vs MAdCAM-1
T1 construct: bought; coated on a nickel coated plate; also called immobilized α4β7; immobilized α4β7 integrin protein

[2] = target: T2, human α4β7 integrin on cells (human, UniProt P13612 34-1032; P26010 20-798); assay: RPMI8866 cell adhesion to MAdCAM-1
T2 construct: whole, on cells; also called α4β7 cell (Hu); RPMI8866 cells

[3] = target: T1, rh integrin α4β7 (R&D Systems #5397-A30); assay: competition ELISA vs MAdCAM-1; remark: listed apart in the source

| Binder | IC50 [1] [nM] | IC50 [2] [nM] | IC50 [3] [nM] |
| --- | --- | --- | --- |
| Ac-[Pen][NMeR]SDTL[Pen][Phe(3,4-Cl2)]E[dK]-NH2 (disulfide 1-7; SMILES CC(=O)N[C@@H]1C(=O)N(C)[C@@H](CCCNC(=N)N)C(=O)N[C@@H](CO)C(=O)N[C@@H](CC(=O)O)C(=O)N[C@@H]([C@@H](C)O)C(=O)N[C@@H](CC(C)C)C(=O)N[C@H](C(=O)N[C@@H](Cc2ccc(Cl)c(Cl)c2)C(=O)N[C@@H](CCC(=O)O)C(=O)N[C@H](CCCCN)C(N)=O)C(C)(C)SSC1(C)C) [SEQ ID NO: 17] | > 10 | – | – |
| Ac-[Pen][NMeR][dD]DTL[Pen]WE[dK]-NH2 (disulfide 1-7; SMILES CC(=O)N[C@@H]1C(=O)N(C)[C@@H](CCCNC(=N)N)C(=O)N[C@H](CC(=O)O)C(=O)N[C@@H](CC(=O)O)C(=O)N[C@@H]([C@@H](C)O)C(=O)N[C@@H](CC(C)C)C(=O)N[C@H](C(=O)N[C@@H](Cc2c[nH]c3ccccc23)C(=O)N[C@@H](CCC(=O)O)C(=O)N[C@H](CCCCN)C(N)=O)C(C)(C)SSC1(C)C) [SEQ ID NO: 48] | > 1000 | – | – |
| Ac-[Pen][NMeR]S[Asp(OMe)]TL[Pen]WE[dK]-NH2 (disulfide 1-7; also: Biotine, site of attachment not given here) [SEQ ID NO: 69] | > 10 | > 100 | – |
| Ac-[Pen]RSDTLC[dK]-NH2 (disulfide 1-7; SMILES CC(=O)N[C@@H]1C(=O)N[C@@H](CCCNC(=N)N)C(=O)N[C@@H](CO)C(=O)N[C@@H](CC(=O)O)C(=O)N[C@@H]([C@@H](C)O)C(=O)N[C@@H](CC(C)C)C(=O)N[C@H](C(=O)N[C@H](CCCCN)C(N)=O)CSSC1(C)C, also called peptide 206) [SEQ ID NO: 206] | – | – | 97 |
| Ac-[Pen][NMeR]SDTL[Pen][Phe(2,4-Cl2)]E[dK]-NH2 (disulfide 1-7; SMILES CC(=O)N[C@@H]1C(=O)N(C)[C@@H](CCCNC(=N)N)C(=O)N[C@@H](CO)C(=O)N[C@@H](CC(=O)O)C(=O)N[C@@H]([C@@H](C)O)C(=O)N[C@@H](CC(C)C)C(=O)N[C@H](C(=O)N[C@@H](Cc2ccc(Cl)cc2Cl)C(=O)N[C@@H](CCC(=O)O)C(=O)N[C@H](CCCCN)C(N)=O)C(C)(C)SSC1(C)C) [SEQ ID NO: 16] | > 10 | – | – |
| H-[βAla][Pen][NMeR]SDTL[Pen]W[dE]-NH2 (disulfide 2-8; SMILES CC(C)C[C@@H]1NC(=O)[C@H]([C@@H](C)O)NC(=O)[C@H](CC(=O)O)NC(=O)[C@H](CO)NC(=O)[C@H](CCCNC(=N)N)N(C)C(=O)[C@@H](NC(=O)CCN)C(C)(C)SSC(C)(C)[C@@H](C(=O)N[C@@H](Cc2c[nH]c3ccccc23)C(=O)N[C@H](CCC(=O)O)C(N)=O)NC1=O) [SEQ ID NO: 53] | > 10 | – | – |
| Ac-[Pen][NMeR]SDTLC[Tic][dE][dK]-NH2 (disulfide 1-7; SMILES CC(=O)N[C@@H]1C(=O)N(C)[C@@H](CCCNC(=N)N)C(=O)N[C@@H](CO)C(=O)N[C@@H](CC(=O)O)C(=O)N[C@@H]([C@@H](C)O)C(=O)N[C@@H](CC(C)C)C(=O)N[C@H](C(=O)N2Cc3ccccc3C[C@H]2C(=O)N[C@H](CCC(=O)O)C(=O)N[C@H](CCCCN)C(N)=O)CSSC1(C)C) [SEQ ID NO: 89] | > 25 | – | – |
| Ac-[Pen][NMeR]SDTL[Pen][hPhe]E[dK]-NH2 (disulfide 1-7; SMILES CC(=O)N[C@@H]1C(=O)N(C)[C@@H](CCCNC(=N)N)C(=O)N[C@@H](CO)C(=O)N[C@@H](CC(=O)O)C(=O)N[C@@H]([C@@H](C)O)C(=O)N[C@@H](CC(C)C)C(=O)N[C@H](C(=O)N[C@@H](CCc2ccccc2)C(=O)N[C@@H](CCC(=O)O)C(=O)N[C@H](CCCCN)C(N)=O)C(C)(C)SSC1(C)C) [SEQ ID NO: 19] | > 10 | – | – |
| Ac-[Pen][NMeR]SDTL[Pen][Phe(4-tBu)]-OH (disulfide 1-7; SMILES CC(=O)N[C@@H]1C(=O)N(C)[C@@H](CCCNC(=N)N)C(=O)N[C@@H](CO)C(=O)N[C@@H](CC(=O)O)C(=O)N[C@@H]([C@@H](C)O)C(=O)N[C@@H](CC(C)C)C(=O)N[C@H](C(=O)N[C@@H](Cc2ccc(C(C)(C)C)cc2)C(=O)O)C(C)(C)SSC1(C)C) [SEQ ID NO: 151] | > 10 | > 50 | – |

The next lines start with the values.

| IC50 [1] [nM] | IC50 [2] [nM] | IC50 [3] [nM] | Binder |
| --- | --- | --- | --- |
| > 10 | > 100 | – | H-[βAla][Pen][NMeR]SDTL[Pen]WE-NH2 (disulfide 2-8; SMILES CC(C)C[C@@H]1NC(=O)[C@H]([C@@H](C)O)NC(=O)[C@H](CC(=O)O)NC(=O)[C@H](CO)NC(=O)[C@H](CCCNC(=N)N)N(C)C(=O)[C@@H](NC(=O)CCN)C(C)(C)SSC(C)(C)[C@@H](C(=O)N[C@@H](Cc2c[nH]c3ccccc23)C(=O)N[C@@H](CCC(=O)O)C(N)=O)NC1=O) [SEQ ID NO: 52] |
| > 10 | – | – | Ac-[Pen][NMeR]SDTL[Pen]WEP[dK]-NH2 (disulfide 1-7; SMILES CC(=O)N[C@@H]1C(=O)N(C)[C@@H](CCCNC(=N)N)C(=O)N[C@@H](CO)C(=O)N[C@@H](CC(=O)O)C(=O)N[C@@H]([C@@H](C)O)C(=O)N[C@@H](CC(C)C)C(=O)N[C@H](C(=O)N[C@@H](Cc2c[nH]c3ccccc23)C(=O)N[C@@H](CCC(=O)O)C(=O)N2CCC[C@H]2C(=O)N[C@H](CCCCN)C(N)=O)C(C)(C)SSC1(C)C) [SEQ ID NO: 49] |
| ≤ 10 | – | – | Ac-[Pen][NMeR]SDTL[Pen][Phe(4-tBu)][β3hE][dK]-NH2 (disulfide 1-7; not fully specified (residue 10); printed as (Ac Pen N-Me-R S D T L Pen F(4-Bu) b-H-E k NH2)2 IDA Alexa-647, disulfide Pen-Pen; also: homodimer: two subunits joined by IDA linker, Alexa-647 label on the linker, F(4-Bu) as printed) [SEQ ID NO: 183] |
| ≤ 10 | ≤ 10 | – | Ac-[Pen][NMeR]SDTL[Pen][Phe(2,4-Cl2)]E[dK]-NH2 (disulfide 1-7; not fully specified (residue 10); printed as (Ac Pen N-Me-R S D T L Pen F(2,4-diCl) E k NH2)2 DIG, disulfide Pen-Pen; also: dimer, two subunits joined by DIG linker) [SEQ ID NO: 42] |
| ≤ 10 | ≤ 10 | – | Ac-[Pen][NMeR]S[Asp(OMe)]TL[Pen]WE[dK]-NH2 (disulfide 1-7; not fully specified (residue 10); printed as (Ac Pen N-Me-R S D(OMe) T L Pen W E k NH2)2 DIG, disulfide Pen-Pen; also: homodimer: two subunits linked by DIG via D-Lys10 side chain) [SEQ ID NO: 73] |
| 364 | > 10000 | – | cyclo([Pen][NMeR]SDTL[Pen]WE) (disulfide 1-7; SMILES CC(C)C[C@@H]1NC(=O)[C@H]([C@@H](C)O)NC(=O)[C@H](CC(=O)O)NC(=O)[C@H](CO)NC(=O)[C@H](CCCNC(=N)N)N(C)C(=O)[C@H]2NC(=O)[C@H](CCC(=O)O)NC(=O)[C@H](Cc3c[nH]c4ccccc34)NC(=O)[C@@H](NC1=O)C(C)(C)SSC2(C)C) [SEQ ID NO: 144] |
| ≤ 10 | – | – | Ac-[Pen][NMeR]SDTL[Pen][Phe(4-tBu)][β3hE][dK]-NH2 (disulfide 1-7; not fully specified (residue 10); printed as (Ac Pen N-Me-R S D T L Pen F(4-tBu) b-H-E k NH2)2 IDA Alexa-488, disulfide Pen-Pen; also: homodimer: two subunits joined by IDA linker, Alexa-488 label on the linker) [SEQ ID NO: 182] |
| ≤ 10 | – | – | Ac-[Pen][NMeR]SDTL[Pen][Phe(4-tBu)]E[dK]-NH2 (disulfide 1-7; not fully specified (residue 10); printed as (Ac Pen N-Me-R S D T L Pen F(4tBu) E k NH2)2 DIG, disulfide Pen-Pen; also: homodimer, two subunits joined by DIG linker) [SEQ ID NO: 131] |
| ≤ 10 | – | – | Ac-[Pen][NMeR]SDTL[Pen][hPhe][dE][dK]-NH2 (disulfide 1-7; not fully specified (residue 10); printed as (Ac Pen N-Me-R S D T L Pen HPhe e k NH2)2 DIG, disulfide Pen-Pen; also: dimer, two subunits joined by DIG linker) [SEQ ID NO: 40] |
| ≤ 10 | > 10 | – | Ac-[Pen][NMeR]SDTL[Pen][Phe(3,4-Cl2)]E[dK]-NH2 (disulfide 1-7; not fully specified (residue 10); printed as (Ac Pen N-Me-R S D T L Pen F(3,4-diCl) E k NH2)2 DIG, disulfide Pen-Pen; also: dimer, two subunits joined by DIG linker) [SEQ ID NO: 43] |
| 504 | > 10000 | – | XRSDTLXWE (Cyclo [Pen N-Me-R S D T L Pen W e]; disulfide Pen-Pen) [SEQ ID NO: 145] |
